Source: US20100222269A1 (Novo Nordisk, published 2010)
Positions of bridges follow the written chain, without caps; N, C: chain ends. Groups on a side chain read outwards from the residue. No end group written: not given here. *: point of attachment. C20 diacid = O=C(O)CCCCCCCCCCCCCCCCCCC(=O)*; C18 diacid = O=C(O)CCCCCCCCCCCCCCCCC(=O)*; AEEA = NCCOCCOCC(=O)O

Target: Amylin 3(a) receptor (human calcitonin receptor (CTa) with RAMP-3) on BHK570 cells (human, UniProt P30988 25-474)
Experiment: cell-based or functional assay

Amylin 3(a) receptor (human calcitonin receptor (CTa) with RAMP-3) on BHK570 cells, sequence (P30988 25-474): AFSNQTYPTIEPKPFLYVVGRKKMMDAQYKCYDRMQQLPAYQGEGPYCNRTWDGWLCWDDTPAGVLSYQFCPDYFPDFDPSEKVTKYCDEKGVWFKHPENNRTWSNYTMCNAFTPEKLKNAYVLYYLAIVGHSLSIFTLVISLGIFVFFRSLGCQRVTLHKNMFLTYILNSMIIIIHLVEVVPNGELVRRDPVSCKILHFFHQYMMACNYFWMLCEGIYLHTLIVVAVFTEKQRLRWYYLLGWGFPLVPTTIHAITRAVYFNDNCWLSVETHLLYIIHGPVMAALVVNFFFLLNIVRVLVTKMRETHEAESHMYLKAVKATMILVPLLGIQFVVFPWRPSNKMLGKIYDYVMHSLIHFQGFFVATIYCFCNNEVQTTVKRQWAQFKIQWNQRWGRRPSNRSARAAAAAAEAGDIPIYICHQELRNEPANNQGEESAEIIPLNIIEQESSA

| Potency luciferase assay | Binder |
| --- | --- |
| 0.04 nM | KCNTATCATQRLANFLVRSSNNFGK([AEEA-AEEA-C18 diacid])ILPPTNVGSNTY-NH2 (disulfide 2-7 (inferred)) |
| 0.06 nM | KCNTATCATQRLANFLVHSSNNFGK([AEEA-AEEA-C20 diacid])ILPPTNVGSNTY-NH2 (disulfide 2-7 (inferred)) |
